Measurements reported in article PMC5746218.

Biological target: PitA (Haloferax volcanii) (Haloferax volcanii (endogenous in strain H26))
Experiment: SEC; Sephacryl S-300 gel filtration of purified PitA against standard proteins (thyroglobulin, ferritin, KatG, BSA, cytochrome c554, cytochrome c)

Work on PitA (Haloferax volcanii) (enzyme) yielded a stoichiometry N (molecules of the subunit) greater than 10.
